Biological target: Gallus gallus NET1ΔC loop cd (R374A H375A K395A H399A R400A K401A) (Gallus gallus, UniProt Q90922 26-458, R374A | H375A | K395A | H399A | R400A | K401A)
Assay: ELISA; glypican-3 coated (0.5 µg/well); soluble NET1ΔC alone (0.5–500 nM, or 500 nM pre-incubated with HO-dp20 for competition); detection with polyclonal NET1 antibody
Details: both partners purified

binding result: binds
B1: glypican-3 (AF185614 aa 25-557 R357A) (domain or fragment)
chain: QPPPPPDATCHQVRSFFQRLQPGLKWVPETPVPGSDLQVCLPKGPTCCSRKMEEKYQLTARLNMEQLLQSASMELKFLIIQNAAVFQEAFEIVVRHAKNYTNAMFKNNYPSLTPQAFEFVGEFFTDVSLYILGSDINVDDMVNELFDSLFPVIYTQMMNPGLPESVLDINECLRGARRDLKVFGSFPKLIMTQVSKSLQVTRIFLQALNLGIEVINTTDHLKFSKDCGRMLTRMWYCSYCQGLMMVKPCGGYCNVVMQGCMAGVVEIDKYWREYILSLEELVNGMYRIYDMENVLLGLFSTIHDSIQYVQKNGGKLTTTIGKLCAHSQQRQYASAYYPEDLFIDKKILKVAHVEHEETLSSRRRELIQKLKSFINFYSALPGYICSHSPVAENDTLCWNGQELVERYSQKAARNGMKNQFNLHELKMKGPEPVVSQIIDKLKHINQLLRTMSVPKGKVLDKSLDEEGLESGDCGDDEDECIGSSGDGMVKVKNQLRFLAELAYDLDVDDAPGNKQHGNQKDNEITTSHSVGNM
modifications: three extended GAG chains are attached to the core protein
notes: Glypican-3, AF185614 aa 25-557; Heparan sulphate proteoglycan; also called GPC3; source: HEK 293 (sleeping beauty transposon system, BM40 signal peptide), purified (Strep-Tactin)

— article PMC9984387, “The dynamic nature of netrin-1 and the structural basis for glycosaminoglycan fragment-induced filament formation” (Nature Communications, 2023)
